{"source": "patent US10143747B2", "about": "“Breast cancer therapeutics” (IMBA—INSTITUT FÜR MOLEKULARE BIOTECHNOLOGIE GMBH, priority 2010, dated 2018)", "tested_on": "primary mouse mammary gland epithelial cells (MECs)", "assay": "Western blotting of RANKL-stimulated primary mouse mammary gland epithelial cells", "assay_type": "cell-based", "conditions": "RANKL 1 μg/ml", "experimental": "a, Western blotting for phosphorylated (P) IKKα, total IKKα, phosphorylated (P) p65 NFκB, total p65 NFκB, phosphorylated (P) IκBα, and total IκBα in isolated primary mouse mammary gland epithelial cells (MECs) in response to RANKL stimulation (1 μg/ml). β-actin is shown as loading control. b, Western blotting for IKKα, IKKβ, IKKγ, phosphorylated (P) p65 NFκB, total p65 NFκB, phosphorylated (P) IκBα, and total IκBα in pooled late stage mammary adenocarconimas (n=4 for each lane) that developed in control, RANK^Δmam and IKKΔ^Δmam females. β-actin is shown as loading control c, Expression of RANK, CyclinD1, and p21 mRNA in late stage mammary adenocacinomas that developed in control, RANK^Δmam, and IKKα^Δmam females. Expression was determined by qRT-PCR. Data are mean values+/−sem. n=4 per group. d, Soft-Agar Colony Formation Assay. Growth of human SKBR3 breast cancer cells in soft agar in response to stimulation with RANKL (1 μg/ml) or EGF (100 ng/ml). Anchorage-independent, macroscopic colonies formed after 18 days in culture with RANKL, which was prevented by the decoy receptor OPG (1 μg/ml). […] Apoptosis was detected by immunostaining for active Caspase 3. f, Apoptotic nuclei of epithelial cells (arrows) are shown for representative mammary gland sections. Magnifications×40. g, Quantification of mammary epithelial apoptosis. A minimum of 5000 nuclei was counted for each mouse. […]"}
{"molecule": "RANKL: recombinant RANKL protein, ligand of RANK, used as stimulus (1 μg/ml or 1 μg i.p.) (protein, UniProt O35235 139-316, looked up) Tumor necrosis factor ligand …: FSGAPAMMEGSWLDVAQRGKPEAQPFAHLTINAASIPSGSHKVTLSSWYHDRGWAKISNMTLSNGKLRVNQDGFYYLYANICFRHHETSGSVPTDYLQLMVYVVKTSIKIPSSHNLMKGGSTKNWSGNSEFHFYSINVGGFFKLRAGEEISIQVSNPSLLDPDQDATYFGAFKVQDID", "values": [{"measurement": "p65 NFκB and IκBα phosphorylation", "value": "resulted in p65 NFκB and IκBα phosphorylation"}, {"measurement": "phosphorylation of p38-MAPKs and ERK", "value": "triggered phosphorylation of p38-MAPKs and ERK"}]}
